This is an account of results in patent US20230093155A1.

For the assay, the target named is IL-2Rβ and γc complex expressed on the lymphocytes (human) (UniProt P14784). The experiment in a line: cell-based or functional assay.

Several values for one entry are separate records, joined by “and”; a condition that tells them apart may be missing. Identical values can stand only once.

Sequence of IL-2Rβ and γc complex expressed on the lymphocytes (human) (P14784 27-551, chain 1 of 2): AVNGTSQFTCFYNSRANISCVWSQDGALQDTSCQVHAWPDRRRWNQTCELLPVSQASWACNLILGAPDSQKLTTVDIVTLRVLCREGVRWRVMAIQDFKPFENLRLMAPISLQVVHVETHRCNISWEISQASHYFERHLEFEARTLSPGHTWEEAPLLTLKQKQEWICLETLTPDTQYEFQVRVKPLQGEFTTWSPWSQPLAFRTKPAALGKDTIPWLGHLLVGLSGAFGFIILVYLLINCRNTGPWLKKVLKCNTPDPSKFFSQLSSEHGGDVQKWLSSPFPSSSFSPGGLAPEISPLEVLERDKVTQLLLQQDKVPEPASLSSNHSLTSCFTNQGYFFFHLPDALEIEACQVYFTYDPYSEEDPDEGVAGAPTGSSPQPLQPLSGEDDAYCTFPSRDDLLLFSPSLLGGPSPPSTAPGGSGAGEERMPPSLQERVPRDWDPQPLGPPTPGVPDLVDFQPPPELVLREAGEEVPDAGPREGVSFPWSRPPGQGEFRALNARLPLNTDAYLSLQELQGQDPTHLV
Sequence of IL-2Rβ and γc complex expressed on the lymphocytes (human) (P31785 23-369, chain 2 of 2, further chain): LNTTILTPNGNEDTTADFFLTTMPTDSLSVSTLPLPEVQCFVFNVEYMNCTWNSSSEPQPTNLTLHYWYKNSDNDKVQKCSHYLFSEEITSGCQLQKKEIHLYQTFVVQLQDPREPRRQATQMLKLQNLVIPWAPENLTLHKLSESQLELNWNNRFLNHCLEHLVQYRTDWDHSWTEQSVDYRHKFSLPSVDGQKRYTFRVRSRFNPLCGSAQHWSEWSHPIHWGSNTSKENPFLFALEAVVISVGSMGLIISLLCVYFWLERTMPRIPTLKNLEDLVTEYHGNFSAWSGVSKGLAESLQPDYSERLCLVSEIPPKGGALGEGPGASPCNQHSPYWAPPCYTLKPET

With “P-0313 (IL-15 S58D/IL-15Rα Fc fusion) (from UniProt Q13261 31-107)”, the CD8 T cell proliferation EC50 (pM) was 44 pM and 32 pM; the Fold change vs. P-0313 worked out at 1 fold.
Consider “P-0356 (IL-15 I68F/IL-15Rα Fc fusion) (from UniProt Q13261 31-107)”, for which the CD8 T cell proliferation EC50 (pM) worked out at 1250 pM and the Fold change vs. P-0313 was found to be 29 fold.
For “P-0357 (IL-15 I68D/IL-15Rα Fc fusion) (from UniProt Q13261 31-107)”, the CD8 T cell proliferation EC50 (pM) was found to be 296000 pM and the Fold change vs. P-0313 stood at 6730 fold.
On to “P-0358 (IL-15 I68H/IL-15Rα Fc fusion) (from UniProt Q13261 31-107)”, for which the CD8 T cell proliferation EC50 (pM) worked out at 419 pM and the Fold change vs. P-0313 was determined as 9.5 fold.
With “P-0736 (IL-15 I68Q/IL-15Rα Fc fusion) (from UniProt Q13261 31-107)”, the CD8 T cell proliferation EC50 (pM) was determined as 4470 pM and the Fold change vs. P-0313 amounted to 102 fold.
For “P-0737 (IL-15 I68G/IL-15Rα Fc fusion) (from UniProt Q13261 31-107)”, in that order: 14500 pM and 330 fold.
Regarding “P-0738 (IL-15 I68K/IL-15Rα Fc fusion) (from UniProt Q13261 31-107)”, the CD8 T cell proliferation EC50 (pM) is 24800 pM and the Fold change vs. P-0313 was found to be 564 fold.
In the same order, the values of “P-0764 (IL-15 Q108S/IL-15Rα Fc fusion protein) (from UniProt P0DOX5 223-448; Q13261 31-107)” are 62100 pM and 1960 fold.
Take “P-0768 (IL-15 V63A/I68G/IL-15Rα Fc fusion) (from UniProt Q13261 31-107)”: the CD8 T cell proliferation EC50 (pM) was determined as 48000 pM and the Fold change vs. P-0313 amounted to 1510 fold.
The substance “P-0769 (IL-15 V63K/IL-15Rα Fc fusion) (from UniProt Q13261 31-107)” came in with a CD8 T cell proliferation EC50 (pM) of 360 pM and a Fold change vs. P-0313 of 11.3 fold.
With “P-0770 (IL-15 V63R/IL-15Rα Fc fusion) (from UniProt Q13261 31-107)”, the CD8 T cell proliferation EC50 (pM) is 184 pM and the Fold change vs. P-0313 was found to be 5.8 fold.
The substance “P-0771 (IL-15 V63A/IL-15Rα Fc fusion) (from UniProt Q13261 31-107)” registered a CD8 T cell proliferation EC50 (pM) of 132 pM and a Fold change vs. P-0313 of 4.2 fold.
Substance “P-0772 (IL-15 V63A/I68Q/IL-15Rα Fc fusion) (from UniProt Q13261 31-107)” had a CD8 T cell proliferation EC50 (pM) of 15400 pM and a Fold change vs. P-0313 of 485 fold.
“P-0773 (IL-15 V63A/I68H variant/IL-15RαSushi Fc fusion protein) (from UniProt Q13261 31-107)”: the CD8 T cell proliferation EC50 (pM) worked out at 1420 pM and the Fold change vs. P-0313 is 45 fold.
“P-0793 (IL-15 Q108A/IL-15Rα Fc fusion) (from UniProt P0DOX5 223-448; Q13261 31-107)”: the CD8 T cell proliferation EC50 (pM) is 68800 pM and the Fold change vs. P-0313 was 2170 fold.
